Test results taken from publication PMC11915804, “In situ structures of the contractile nanomachine myophage Mu in both its extended and contracted states” (Journal of Virology, 2025).

B1: baseplate wedge protein 3 (BW3) gp48 (natural protein, phage Mu, UniProt Q9T1V1 1-180, looked up)
chain: MAVTPWQTAFLQLLPSGLAWNKSPDSKLSALAQAISDVIATAADDARQMLRERFPSTSRWYLGEWESFLGLPDCTSENGTLSERQRAAANKMRMTGNLSRRFYEWLAAQYGFTVRLTDSTEGQWVTQVNIYGIKNYRNATVLDNVLTPLRVYESGALECLLEKYKPAHQIYKFVYHDGDN
notes: baseplate wedge protein 3 gp48 of myophage Mu, as it stands in the virion; One copy in each of the six wedges; Model deposited here; source: phage Mu virions grown on E. coli (ATCC 23724), purified (PEG 8000/NaCl precipitation, CsCl gradient)

Legend:
Experiment in all cases: cryo-EM structure; purified phage Mu virions in the extended state (native phage) in phage buffer (10 mM MgCl2, 5 mM NaCl, 10 mM Tris-HCl, pH 7.4); icosahedral, symmetry-mismatch and local reconstruction; 3.2 Å (3-fold capsid), 3.4 Å (portal-adaptor), 3.5 Å (terminator-tail), 3.3 Å (baseplate)
Conditions in all cases: both partners purified
[1] = target: T1, baseplate wedge protein 2 (BW2) gp47 (phage Mu, UniProt Q9T1V2 1-360)
T1 construct: baseplate wedge protein 2 gp47 of myophage Mu, as it stands in the virion; Two conformers (BW2-i, BW2-o) in each of the six wedges; Model deposited here; also called BW2-i; BW2-o; source: phage Mu virions grown on E. coli (ATCC 23724), purified (PEG 8000/NaCl precipitation, CsCl gradient)
T1 sequence (looked up): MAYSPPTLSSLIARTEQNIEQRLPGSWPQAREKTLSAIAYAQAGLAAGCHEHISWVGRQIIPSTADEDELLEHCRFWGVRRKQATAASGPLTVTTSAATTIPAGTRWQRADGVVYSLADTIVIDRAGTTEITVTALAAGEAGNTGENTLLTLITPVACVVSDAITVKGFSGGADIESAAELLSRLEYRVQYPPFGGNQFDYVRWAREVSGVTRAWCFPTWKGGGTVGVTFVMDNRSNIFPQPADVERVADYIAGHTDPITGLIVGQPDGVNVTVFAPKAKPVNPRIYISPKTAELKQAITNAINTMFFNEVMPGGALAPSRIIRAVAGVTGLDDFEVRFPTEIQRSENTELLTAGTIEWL

[2] = target: T2, tube initiator protein gp43 (phage Mu, UniProt P08557 1-495)
T2 construct: tube initiator protein gp43 (N protein, DNA circularization protein) of myophage Mu, as it stands in the virion; Hexamer; Model deposited here; also called N protein; DNA circularization protein; source: phage Mu virions grown on E. coli (ATCC 23724), purified (PEG 8000/NaCl precipitation, CsCl gradient)
T2 sequence (looked up): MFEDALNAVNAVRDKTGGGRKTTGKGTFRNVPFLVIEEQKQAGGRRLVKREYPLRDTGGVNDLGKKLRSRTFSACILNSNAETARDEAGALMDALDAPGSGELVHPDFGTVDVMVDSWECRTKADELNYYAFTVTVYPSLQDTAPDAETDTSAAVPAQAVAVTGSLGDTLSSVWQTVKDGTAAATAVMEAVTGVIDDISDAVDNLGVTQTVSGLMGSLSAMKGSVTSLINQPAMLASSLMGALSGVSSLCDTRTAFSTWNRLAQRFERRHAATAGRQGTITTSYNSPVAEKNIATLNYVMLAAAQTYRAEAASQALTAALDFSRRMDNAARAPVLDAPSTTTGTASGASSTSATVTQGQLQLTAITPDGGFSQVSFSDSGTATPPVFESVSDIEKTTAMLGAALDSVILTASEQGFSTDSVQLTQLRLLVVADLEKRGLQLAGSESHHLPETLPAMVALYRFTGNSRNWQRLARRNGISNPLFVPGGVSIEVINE

[3] = target: T3, G(+) type fiber protein gp49 (phage Mu, UniProt Q9T1V0 1-504)
T3 construct: G(+) type tail fiber protein gp49 of myophage Mu, as it stands in the virion; only the N-terminus was modelled; Trimer; six fibers in the baseplate; Model deposited here; source: phage Mu virions grown on E. coli (ATCC 23724), purified (PEG 8000/NaCl precipitation, CsCl gradient)
T3 sequence (looked up): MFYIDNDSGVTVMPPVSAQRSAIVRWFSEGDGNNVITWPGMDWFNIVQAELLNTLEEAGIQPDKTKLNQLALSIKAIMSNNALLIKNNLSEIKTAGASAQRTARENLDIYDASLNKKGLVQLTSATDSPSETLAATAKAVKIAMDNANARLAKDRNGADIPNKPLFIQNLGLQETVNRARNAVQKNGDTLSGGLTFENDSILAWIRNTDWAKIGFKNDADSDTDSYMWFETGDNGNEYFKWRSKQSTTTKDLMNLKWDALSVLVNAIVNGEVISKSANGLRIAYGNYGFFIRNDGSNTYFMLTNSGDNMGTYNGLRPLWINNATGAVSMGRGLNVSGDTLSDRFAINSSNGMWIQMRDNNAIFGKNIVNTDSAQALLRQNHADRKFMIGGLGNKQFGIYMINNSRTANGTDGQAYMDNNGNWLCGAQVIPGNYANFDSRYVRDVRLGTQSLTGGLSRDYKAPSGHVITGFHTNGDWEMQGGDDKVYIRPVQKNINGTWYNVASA

[4] = target: T4, tail sheath protein gp39 (phage Mu, UniProt P79678 1-495)
T4 construct: tail sheath protein gp39 of myophage Mu, as it stands in the virion; Hexameric rings, 30 of them stacked in the tail; Model deposited here; source: phage Mu virions grown on E. coli (ATCC 23724), purified (PEG 8000/NaCl precipitation, CsCl gradient)
T4 sequence (looked up): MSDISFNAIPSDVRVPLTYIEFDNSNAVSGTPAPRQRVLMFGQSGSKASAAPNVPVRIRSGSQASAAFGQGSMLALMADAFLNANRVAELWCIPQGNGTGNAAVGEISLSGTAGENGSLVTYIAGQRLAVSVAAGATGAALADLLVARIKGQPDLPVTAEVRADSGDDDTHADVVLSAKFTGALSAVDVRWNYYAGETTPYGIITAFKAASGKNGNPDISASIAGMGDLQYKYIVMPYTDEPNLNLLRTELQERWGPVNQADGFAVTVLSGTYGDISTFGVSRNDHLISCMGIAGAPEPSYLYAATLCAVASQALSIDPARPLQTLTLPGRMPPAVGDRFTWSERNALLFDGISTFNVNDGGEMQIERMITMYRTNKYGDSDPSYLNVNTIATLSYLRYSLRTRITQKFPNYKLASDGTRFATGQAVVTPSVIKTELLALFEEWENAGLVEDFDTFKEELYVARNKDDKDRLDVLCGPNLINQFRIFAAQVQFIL

[5] = target: B1

Measured: binding result

B1
binds: [1] | [2] | [3]

B2: baseplate wedge protein 1 (BW1) gp46 (natural protein, phage Mu, UniProt Q9T1V3 1-145, looked up)
chain: MTDLAIIWTNGRGDIAQDGIDMLTDDSLTTDVTISLFTDRRALDSDTLPDGSDDRRGWWGDSYRDRPIGSRLWLLSREKATPDTLERARGYAEEALEWLKTAGRVSAINVRAEQLHQGWLYLYIALTLPDGSVIPYEFKAAFNGV
notes: baseplate wedge protein 1 gp46 of myophage Mu, as it stands in the virion; One copy in each of the six wedges; Model deposited here; source: phage Mu virions grown on E. coli (ATCC 23724), purified (PEG 8000/NaCl precipitation, CsCl gradient)
not listed: [3]
binds: all other assays above
